Results from IntAct's records for PubMed 19019158.

B1: TrfB transcriptional repressor protein (Escherichia coli), P03052 (parent)
chain: MKKRLTESQFQEAIQGLEVGQQTIEIARGVLVDGKPQATFATSLGLTRGAVSQAVHRVWAAFEDKNLPEGYARVTAVLPEHQAYIVRKWEADAKKKQETKR

Variants of: B1
Settings: with korb2_ecolx korB

Row | Variant | effect of a mutation on the interaction
1 | MKKRLTESQFQEAIQGLEVGQQTIEIARGVLVDGKPQATFATSLGLTRGAVSQAVHRVWAAFEDKNLPEGYARVTAVLPEHAAYIVRKWEADAKKKQETKR [Q82A] | decreasing interaction strength
2 | MKKRLTESQFQEAIQGLEVGQQTIEIARGVLVDGKPQATFATSLGLTRGAVSQAVHRVWAAFEDKNLPEGYARVTAVAPEHQAYIVRKWEADAKKKQETKR [L78A] | disrupting interaction strength
3 | MKKRLTESQFQEAIQGLEVGQQTIEIARGVLVDGKPQATFATSLGLTRGAVSQAVHRVWAAFEDKNLAEGYARVTAVLPEHQAYIVRKWEADAKKKQETKR [P68A] | decreasing interaction strength
4 | MKKRLTESQFQEAIQGLEVGQQTIEIARGVLVDGKPQATFATSLGLTRGAVSQAVHRVWAAFEDKNLPEGYARATAVLPEHQAYIVRKWEADAKKKQETKR [V74A] | disrupting interaction strength
5 | MKKRLTESQFQEAIQGLEVGQQTIEIARGVLVDGKPQATFATSLGLTRGAVSQAVHRVWAAFEDKNLPEGYARVTAVLPEHQAAIVRKWEADAKKKQETKR [Y84A] | disrupting interaction strength
